The source of these data is patent publication US20220411523A1.

For assay [1], the target named is Human 4-1BB + Mouse 4-1BB domain1,4B,NF(aa24-46,aa139-186) (human; mouse). Description: FACS, transiently transfected Expi293 cells (cell F). A general note: A flow cytometer gives signals particle by particle.
Assay [2] deals with Human 4-1BB + Mouse 4-1BB domain1,2A,2B(aa24-86) (human; mouse). The experiment in a line: FACS, transiently transfected Expi293 cells (cell A).
Human 4-1BB + Mouse 4-1BB domain1,2A,2B(aa24-86) (human; mouse), sequence (chain, as listed by the source): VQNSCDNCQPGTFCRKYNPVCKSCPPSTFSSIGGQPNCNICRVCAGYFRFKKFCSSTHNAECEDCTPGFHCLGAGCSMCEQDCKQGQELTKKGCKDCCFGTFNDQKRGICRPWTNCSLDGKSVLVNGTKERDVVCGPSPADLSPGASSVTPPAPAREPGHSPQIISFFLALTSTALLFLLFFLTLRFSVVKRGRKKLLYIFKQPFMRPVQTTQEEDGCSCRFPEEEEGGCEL

Human 4-1BB + Mouse 4-1BB domain1,4B,NF(aa24-46,aa139-186) (human; mouse), sequence (chain, as listed by the source): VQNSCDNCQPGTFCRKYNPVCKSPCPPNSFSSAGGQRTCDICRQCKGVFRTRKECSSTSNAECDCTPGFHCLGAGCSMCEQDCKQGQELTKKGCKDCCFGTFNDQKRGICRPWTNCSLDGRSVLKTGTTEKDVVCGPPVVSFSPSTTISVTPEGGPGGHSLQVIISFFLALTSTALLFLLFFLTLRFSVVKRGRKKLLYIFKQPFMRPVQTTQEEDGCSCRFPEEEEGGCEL

B1: Hanke10F4 (antibody, human IgG4 S228P, kappa, V domains shown)
VH: QVQLQESGPGLVKPSETLSITCTVSGSSLTSYGVHWVRQPPGKGLEGLGVIWPGGSTNYNSALMSRLTISKDNSKSQVSLKMSSLTAADTAMYYCARVTGTWYFDVWGQGTTVTVSS
VL: DIQMTQSPSSLSASLGDRVTISCSASQGISNYLNWYQQKPDGTVKLLIYYTSTLHSGVPSRFSGSGSGTDFTLTISSLQPEDVATYYCQQYSKLPWTFGGGTKLEIKR
As for B1, the Mean fluorescence intensity in assay [1] came out at 1870; in assay [2], 948.
